Measurements published in PMC7895464 (Journal of molecular biology, 2020).
Read-outs that look alike come from different tables or passages of the source.

Columns and labels:
[1] = molecular target: ClpS*^fl (fluorescein-labelled variant of ClpS containing one cysteine) (E. coli) (UniProt P0A8Q6); assay: fluorescence polarisation
[2] = molecular target: T1, ClpA (E. coli, UniProt P0ABH9 1-758); assay: fluorescence polarisation
T1 sequence (looked up): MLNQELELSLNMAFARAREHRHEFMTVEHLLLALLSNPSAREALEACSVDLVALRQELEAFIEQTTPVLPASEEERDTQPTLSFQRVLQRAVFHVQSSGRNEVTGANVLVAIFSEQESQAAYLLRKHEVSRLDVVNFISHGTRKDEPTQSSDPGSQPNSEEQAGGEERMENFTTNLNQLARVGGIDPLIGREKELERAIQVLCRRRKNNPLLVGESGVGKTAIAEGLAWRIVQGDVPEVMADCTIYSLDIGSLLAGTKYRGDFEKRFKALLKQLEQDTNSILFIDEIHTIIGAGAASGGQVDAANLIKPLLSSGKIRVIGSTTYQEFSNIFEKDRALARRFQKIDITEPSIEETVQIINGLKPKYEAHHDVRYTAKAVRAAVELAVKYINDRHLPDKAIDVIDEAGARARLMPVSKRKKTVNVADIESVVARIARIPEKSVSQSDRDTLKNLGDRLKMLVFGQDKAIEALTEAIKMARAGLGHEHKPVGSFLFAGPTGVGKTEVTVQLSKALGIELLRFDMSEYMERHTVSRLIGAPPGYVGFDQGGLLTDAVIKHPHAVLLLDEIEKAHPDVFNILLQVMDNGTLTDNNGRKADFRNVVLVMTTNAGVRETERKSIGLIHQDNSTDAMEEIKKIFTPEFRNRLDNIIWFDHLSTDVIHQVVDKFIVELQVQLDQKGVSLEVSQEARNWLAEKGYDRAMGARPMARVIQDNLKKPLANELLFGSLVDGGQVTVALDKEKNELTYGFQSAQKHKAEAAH

[3] = molecular target: T2, ClpA-ClpS complex (ClpAS; printed as ClpAPS in the text) (E. coli, UniProt P0ABH9 1-758; P0A8Q6 2-106); assay: fluorescence polarisation
T2 sequence 1: T1 sequence (looked up)
T2 sequence 2: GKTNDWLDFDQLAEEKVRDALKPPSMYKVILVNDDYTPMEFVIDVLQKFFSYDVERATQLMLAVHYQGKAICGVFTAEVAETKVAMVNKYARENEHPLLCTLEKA

[4] = molecular target: T1, ClpA; assay: fluorescence polarisation; remark: listed apart in the source
[5] = molecular target: T1, ClpA

B1: ClpA (enzyme)
chain: T1 sequence (looked up)
Kd [1]: 0.16 µM

B2: λ*^fl-ssrA (fluorescein-labelled ssrA-tagged DNA-binding domain of λ repressor, λ(1-93)^A21C-ssrA) (domain or fragment, bacteriophage λ | E. coli)
chain: MSTKKKPLTQEQLEDARRLKCIYEKKKNELGLSQESVADKMGMGQSGVGALFNGINALNAYNAALLAKILKVSVEEFSPSIAREIYEMYEAVSAANDENYALAA
modifications: fluorescein (fluorescein-5-maleimide) on the single cysteine
Kd [2]: 0.74 µM | Kd [3]: ~8 µM

B3: ClpS (natural protein, E. coli)
chain: T2 sequence 2
binding result [4]: binds

B4: ClpS^ΔN17 (domain or fragment, E. coli, UniProt P0A8Q6 18-106, looked up)
chain: VRDALKPPSMYKVILVNDDYTPMEFVIDVLQKFFSYDVERATQLMLAVHYQGKAICGVFTAEVAETKVAMVNKYARENEHPLLCTLEKA
Kd [5]: ~0.16 µM
